Earlier results, collected in publication PMC9254164.

Target: phospho-ubiquitin (Homo sapiens) (UniProt P0CG47)

Parkin, sequence (O60260 whole entry): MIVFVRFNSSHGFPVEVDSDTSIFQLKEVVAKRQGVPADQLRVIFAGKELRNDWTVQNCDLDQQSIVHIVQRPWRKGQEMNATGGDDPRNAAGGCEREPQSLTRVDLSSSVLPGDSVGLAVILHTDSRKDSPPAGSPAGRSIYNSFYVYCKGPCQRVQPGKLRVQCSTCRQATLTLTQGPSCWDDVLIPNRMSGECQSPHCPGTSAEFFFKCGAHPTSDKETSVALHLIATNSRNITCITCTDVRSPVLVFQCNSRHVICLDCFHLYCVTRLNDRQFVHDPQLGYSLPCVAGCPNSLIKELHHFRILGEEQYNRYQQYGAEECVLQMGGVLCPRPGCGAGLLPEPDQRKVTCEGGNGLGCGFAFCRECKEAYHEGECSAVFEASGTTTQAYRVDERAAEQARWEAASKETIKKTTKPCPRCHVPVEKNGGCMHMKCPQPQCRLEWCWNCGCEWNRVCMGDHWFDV

With Parkin (from UniProt O60260) as the substance, how does the Kd read?
The Kd was 20 nM.
